Results published in paper PMC2902519, “Impairment of Protein Trafficking upon Overexpression and Mutation of Optineurin” (PLoS ONE, 2010).
Blank lines part the entries; values can stand above or below the molecule they belong to.

Tests used:
[1] = target: T1, E50K optineurin-GFP (OPTN_(E50K)-GFP) (human, UniProt Q96CV9 1-577, E50K); assay: co-IP; Tet-on inducible RGC5 cells, doxycycline 1 ug/ml 16 h, expressing OPTNWT-, OPTN_(E50K)- or OPTN_(L157A)-GFP; lysate precipitated with polyclonal anti-GFP; eluates blotted with monoclonal anti-Rab8 or anti-TfR and anti-GFP; band intensity ratio relative to wild type
T1 construct: optineurin, human, with the glaucoma-associated mutation Glu50 to Lys; also called E50K mutant; not shown: GFP, C-terminal, kept
T1 sequence (Q96CV9 whole entry E50K): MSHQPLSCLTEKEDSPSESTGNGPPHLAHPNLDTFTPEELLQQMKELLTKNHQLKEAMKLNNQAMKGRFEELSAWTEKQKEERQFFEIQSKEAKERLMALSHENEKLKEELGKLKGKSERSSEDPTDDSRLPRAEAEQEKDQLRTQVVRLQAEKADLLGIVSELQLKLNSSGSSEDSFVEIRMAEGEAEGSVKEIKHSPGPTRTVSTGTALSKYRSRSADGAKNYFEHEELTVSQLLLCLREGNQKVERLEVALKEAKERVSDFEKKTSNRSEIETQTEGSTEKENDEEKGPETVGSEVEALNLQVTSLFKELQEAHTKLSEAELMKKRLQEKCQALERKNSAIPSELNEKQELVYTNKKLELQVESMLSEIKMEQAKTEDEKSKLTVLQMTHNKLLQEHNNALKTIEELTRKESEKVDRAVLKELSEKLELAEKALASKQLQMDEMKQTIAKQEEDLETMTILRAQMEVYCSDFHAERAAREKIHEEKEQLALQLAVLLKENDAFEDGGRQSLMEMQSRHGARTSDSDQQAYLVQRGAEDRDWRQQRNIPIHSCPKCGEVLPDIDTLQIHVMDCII

[2] = target: T2, L157A optineurin-GFP (OPTN_(L157A)-GFP) (human, UniProt Q96CV9 1-577, L157A); assay: as above
T2 construct: optineurin, human, with the point mutation Leu157 to Ala made by site-directed mutagenesis; also called L157A mutant; not shown: GFP, C-terminal, kept
T2 sequence (Q96CV9 whole entry L157A): as the sequence (Q96CV9 whole entry E50K) above, with K50E, L157A counted along it

- fold increase of co-precipitated Rab8 against OPTNWT-GFP (fold higher than wild type) [1]: 5
- fold reduction of Rab8 binding against OPTNWT-GFP (fold lower than wild type) [2]: 5
Molecule: endogenous Rab8 of RGC5 cells (from UniProt P35280 1-207) (natural protein)

- fold increase of co-precipitated TfR against wild type optineurin ([1]; partners not purified): ~10 fold higher than wild type
- fold reduction of co-precipitated TfR against wild type optineurin ([2]; partners not purified): ~5 fold lower than wild type
B1: endogenous transferrin receptor (TfR) of RGC5 cells (receptor, rat (endogenous in RGC5), UniProt Q99376 1-761, looked up)
chain: MMDQARSAFSNLFGGEPLSYTRFSLARQVDGDNSHVEMKLAADEEENADSNMKASVRKPKRFNGRLCFATIAVVIFFLIGFMIGYLGYCKRVEQKEECVRLAEAEEADKSENDETEYVPKSSRLFWADLKTLLSEKLNSIEFTDIIKQLSQNTYTPREAGSQKDENLAYYIENLFHDFKFSKVWRDEHYVKIQVKNSVSQNLVTINSGSNIDPVEAPEGYVAFSKAGEVTGKLVHANFGTKKDFEELNYSVNGSLVIVRAGKITFAEKVANAQSFNAIGVLIYMDRNTFPVVEADLQFFGHAHLGTGDPYTPGFPSFNHTQFPPSQSSGLPSIPVQTISRAAAEKLFKNMEGNCPPSWNIDSSCKLELSQNQNVKLTVNNVLKETRILNIFGVIKGYEEPDRYIVVGAQRDAWGPGVAKSSVGTGLLLKLAQVFSDMISKDGFRPSRSIIFASWTAGDYGAVGATEWLEGYLSSLHLKAFTYINLDKVVLGTSNFKVSASPLLYTLMGKIMQDVKHPIDGKYLYRDSNWISKIEELSLDNAAFPFLAYSGIPAVSFCFCEDEDYPYLGTKLDTYEILIQKVPQLNQMVRTAAEVAGQFIIKLTHDIELTLDYEMYNSKLLSFMKDLNQFKADIKDMGLSLQWLYSARGDYFRATSRLTTDFHNAEKTNRFVMREINDRIMKVEYHFLSPYVSPRESPFRHIFWGSGSHTLSALVENLRLRQKNITAFNETLFRNQLALATWTIQGVANALSGDIWNIDNEF
notes: transferrin receptor, endogenous in rat RGC5 cells, detected as a 95-kDa band by mouse monoclonal anti-human TfR (Zymed); The abstract calls RGC5 a rat cell line; also called 95-kDa TfR; source: endogenous, RGC5 lysate
